Test system: purified wild-type Gα13 pre-loaded with GDP
Sequence (chain, as listed by the source): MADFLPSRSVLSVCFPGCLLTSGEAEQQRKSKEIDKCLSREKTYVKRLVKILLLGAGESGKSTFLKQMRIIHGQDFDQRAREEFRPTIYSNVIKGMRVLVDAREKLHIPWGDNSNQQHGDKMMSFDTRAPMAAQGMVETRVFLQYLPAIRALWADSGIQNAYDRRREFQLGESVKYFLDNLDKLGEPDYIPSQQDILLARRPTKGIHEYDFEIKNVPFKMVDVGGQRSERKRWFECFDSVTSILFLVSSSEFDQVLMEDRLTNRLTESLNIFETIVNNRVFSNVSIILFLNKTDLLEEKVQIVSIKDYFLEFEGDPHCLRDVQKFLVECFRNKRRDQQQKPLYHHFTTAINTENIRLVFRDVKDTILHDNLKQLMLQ

Substance: purified Rac1(GTPγS)
- guanine nucleotide exchange or GTPase activity: No significant changes in these activities were examined
